The RNAGym collection of RNA variant scans (doi:10.7554/elife.80360)

B1: HDV Ribozyme (parent)
chain: GGCCGGCAUGGUCCCAGCCUCCUCGCUGGCGCCGGCUGGGCAACAUUCCGAGGGGACCGUCCCCUCGGUAAUGGCGAAUGGGACCCA

Variants of: B1
Experiment: self-cleavage, relative activity (ratio to wild type); higher = more cleavage; co-transcriptional

Row | Variant | self-cleavage
1 | GGCCGGCAUGGUCCCAGCCUCCUCGCUGGCGCCGGCUGGGCAACAUUCCGAGAGGACCGUCCCCUCGGUAAUGGUGAAUGGGACCCA [G53A C75U] | 0.256
2 | GGCCGGCAUGGUCCCAGCCUCCUCGCUGGCGCCGGCUGGGCAACAUUCCGAGAGGACCGUCCCCUCGGUAAUGGAGAAUGGGACCCA [G53A C75A] | 0.225
3 | GGCCGGCAUGGUCCCAGCCUCCUCGCUGGCGCCGGCUGGGCAACAUUCCGAGAGGACCGUCCCCUCGGUAAUGGCGAAUGGGAACCA [G53A C84A] | 0.888
4 | GGCCGGCAUGGUCCCAGCCUCCUCGCUGGCGCCGGCUGGGCAACAUUCCGAGAGGACCGUCACCUCGGUAAUGGCGAAUGGGACCCA [G53A C62A] | 1.05
5 | GGCCGGCAUGGUCCCAGCCUCCUCGCUGGCGCCGGCUGGGCAACAUUCCGAGAGGACCGUCGCCUCGGUAAUGGCGAAUGGGACCCA [G53A C62G] | 0.511
6 | GGCCGGCAUGGUCCCAGCCUCCUCGCUGGCGCCGGCUGGGCAACAUUCCGAGAGGACCGUCCCCUCGGUACUGGCGAAUGGGACCCA [G53A A71C] | 0.623
7 | GGCCGGCAUGGUCCCAGCCUCCUCGCUGGCGCCGGCUGGGCAACAUUCCGAGAGGACCGUCCCCUCGGUUAUGGCGAAUGGGACCCA [G53A A70U] | 1.02
8 | GGCCGGCAUGGUCCCAGCCUCCUCGCUGGCGCCGGCUGGGCAACAUUCCGAGAGGACCGUCCCCUCGGUCAUGGCGAAUGGGACCCA [G53A A70C] | 1.06
9 | GGCCGGCAUGGUCCCAGCCUCCUCGCUGGCGCCGGCUGGGCAACAUUCCGAUGGGACCGUCCCCUCCGUAAUGGCGAAUGGGACCCA [G52U G67C] | 0.295
10 | GGCCGGCAUGGUCCCAGCCUCCUCGCUGGCGCCGGCUGGGCAACAUUCCGAUGGGACCGUCCCCUCGGUAAUGGCGAACGGGACCCA [G52U U79C] | 0.59
11 | GGCCGGCAUGGUCCCAGCCUCCUCGCUGGCGCCGGCUGGGCAACAUUCCGAUGGGACCGUCCCCUCGGUAAUGGCGAAGGGGACCCA [G52U U79G] | 0.521
12 | GGCCGGCAUGGUCCCAGCCUCCUCGCUGGCGCCGGCUGGGCAACAUUCCGAGAGGACCGUCCCGUCGGUAAUGGCGAAUGGGACCCA [G53A C64G] | 0.769
13 | GGCCGGCAUGGUCCCAGCCUCCUCGCUGGCGCCGGCUGGGCAACAUUCCGAUGGGACCGUCCCCUCGGUAAUGACGAAUGGGACCCA [G52U G74A] | 0.402
14 | GGCCGGCAUGGUCCCAGCCUCCUCGCUGGCGCCGGCUGGGCAACAUUCCGAUGGGACCGUCCCCUCGGUAAUGUCGAAUGGGACCCA [G52U G74U] | 0.629
15 | GGCCGGCAUGGUCCCAGCCUCCUCGCUGGCGCCGGCUGGGCAACAUUCCGAUGGGACCGUCCCCUCGGUAAUGGCGAAUGAGACCCA [G52U G81A] | 0.356
16 | GGCCGGCAUGGUCCCAGCCUCCUCGCUGGCGCCGGCUGGGCAACAUUCCGAGAGGCCCGUCCCCUCGGUAAUGGCGAAUGGGACCCA [G53A A56C] | 0.787

Row | Variant | self-cleavage
17 | GGCCGGCAUGGUCCCAGCCUCCUCGCUGGCGCCGGCUGGGCAACAUUCCGAGAGGGCCGUCCCCUCGGUAAUGGCGAAUGGGACCCA [G53A A56G] | 0.875
18 | GGCCGGCAUGGUCCCAGCCUCCUCGCUGGCGCCGGCUGGGCAACAUUCCGAGAGGACCGUCCCCUCGGUAAUGGCGAAUGGGACCCC [G53A A87C] | 1.1
19 | GGCCGGCAUGGUCCCAGCCUCCUCGCUGGCGCCGGCUGGGCAACAUUCCGAGAGGACCGUCCCCUCGGUAAUGGCGAAUGGGACCCU [G53A A87U] | 0.992
20 | GGCCGGCAUGGUCCCAGCCUCCUCGCUGGCGCCGGCUGGGCAACAUUCCGAGAGGACCGUCCCCUCGGUAAUGGCGAAUGGGACACA [G53A C85A] | 0.933
21 | GGCCGGCAUGGUCCCAGCCUCCUCGCUGGCGCCGGCUGGGCAACAUUCCGAGAGGACCGUCCCCUUGGUAAUGGCGAAUGGGACCCA [G53A C66U] | 1.05
22 | GGCCGGCAUGGUCCCAGCCUCCUCGCUGGCGCCGGCUGGGCAACAUUCCGAGAGGACCGUCCCCUGGGUAAUGGCGAAUGGGACCCA [G53A C66G] | 0.908
23 | GGCCGGCAUGGUCCCAGCCUCCUCGCUGGCGCCGGCUGGGCAACAUUCCGAUGGGACCGUCCCCUCGGUAAUGGCAAAUGGGACCCA [G52U G76A] | 0.936
24 | GGCCGGCAUGGUCCCAGCCUCCUCGCUGGCGCCGGCUGGGCAACAUUCCGAUGGCACCGUCCCCUCGGUAAUGGCGAAUGGGACCCA [G52U G55C] | 0.961
25 | GGCCGGCAUGGUCCCAGCCUCCUCGCUGGCGCCGGCUGGGCAACAUUCCGAUGGGACCGUCCCCGCGGUAAUGGCGAAUGGGACCCA [G52U U65G] | 0.767
26 | GGCCGGCAUGGUCCCAGCCUCCUCGCUGGCGCCGGCUGGGCAACAUUCCGAUGGGACCAUCCCCUCGGUAAUGGCGAAUGGGACCCA [G52U G59A] | 0.982
27 | GGCCGGCAUGGUCCCAGCCUCCUCGCUGGCGCCGGCUGGGCAACAUUCCGAUGGGACCUUCCCCUCGGUAAUGGCGAAUGGGACCCA [G52U G59U] | 0.984
28 | GGCCGGCAUGGUCCCAGCCUCCUCGCUGGCGCCGGCUGGGCAACAUUCCGAUGUGACCGUCCCCUCGGUAAUGGCGAAUGGGACCCA [G52U G54U] | 0.784
29 | GGCCGGCAUGGUCCCAGCCUCCUCGCUGGCGCCGGCUGGGCAACAUUCCGAUGAGACCGUCCCCUCGGUAAUGGCGAAUGGGACCCA [G52U G54A] | 0.653
30 | GGCCGGCAUGGUCCCAGCCUCCUCGCUGGCGCCGGCUGGGCAACAUUCCGAGAGGACCGUCCCCUCGGUAAUGGCGACUGGGACCCA [G53A A78C] | 0.104
31 | GGCCGGCAUGGUCCCAGCCUCCUCGCUGGCGCCGGCUGGGCAACAUUCCGAUGGGACCGUCCCCUCGAUAAUGGCGAAUGGGACCCA [G52U G68A] | 0.517
32 | GGCCGGCAUGGUCCCAGCCUCCUCGCUGGCGCCGGCUGGGCAACAUUCCGAUGGGACCGUCCCCUCGGUAAUGGCGAAUGGCACCCA [G52U G82C] | 0.194
